A word on the EC50: it is the concentration that produces a half-maximal response.

Residue numbers refer to the chain shown, from its start.

The labels stand for the following.
B1: K15 intrabody (L15 expressed from pcDNA3.1-L15 in NSR cells) (antibody, V domains shown)
VL: DIQMTQSPSSLSASVGDRVTITCRASQNIKTKLNWYQQKPGKAPKLLIYRVSTLQSGVPSRFSGSGSGTDFTLTISSLQPEDFATYYCQQTKKRPFTFGQGTKVEIER
notes: band of 12 kDa; not shown: c-Myc tag (detected with anti-c-Myc antibody)
B2: L11 soluble single domain antibody (antibody, V domains shown)
VL: DIQMTQSPSSLSASVGDRVTITCRASQWIFTELAWYQQKPGKAPKLLIYNASYLQSGVPSRFSGSGSGTDFTLTISSLQPEDFATYYCQQTFTPPITFGQGTKVEIKR
notes: Tie to L11 rests on list order and numbering; not shown: c-Myc tag (detected with anti-Myc-HRP)
B3: L12 soluble single domain antibody (antibody, V domains shown)
VL: B2 VL with T31D, E32R, A34H, K45T, A51S, Y53T, F92K, T93S, P94R, I96S
notes: Single human kappa light chain variable domain, from pDOM5 in E. coli BL21, protein L purified; not shown: c-Myc tag (detected with anti-Myc-HRP)
B4: L7 soluble single domain antibody (antibody, V domains shown)
VL: B2 VL with W28R, E32R, A34E, K45M, A51V, Y53H, F92E, T93I, P94I, R108Q
notes: as for B3
B5: L5 soluble single domain antibody (antibody, V domains shown)
VL: B1 VL with N28G, T31M, R50N, V51T, T53H, T91H, K93T, F96D, E107K
notes: Single human kappa light chain variable domain (domain antibody), expressed from pDOM5 in E. coli BL21, purified on protein L, about 15 kDa; the tie to L5 rests on the order of the list and the numbering (CDRs 4, 6, 8 follow 2); not shown: c-Myc tag (detected with anti-Myc-HRP)
B6: L9 soluble single domain antibody (antibody, V domains shown)
VL: B1 VL with N28A, T31N, N34G, R50K, V51A, T53Y, T91M, K93S, F96N, E107K
notes: as for B3
B7: L15 soluble single domain antibody (antibody, V domains shown)
VL: B1 VL
notes: as for B3
B8: K7 intrabody (L7 expressed from pcDNA3.1-L7 in NSR cells) (antibody, V domains shown, not shown: small tags and cut ends)
VL: B2 VL with W28R, E32R, A34E, K45M, A51V, Y53H, F92E, T93I, P94I, R108Q
B9: K11 intrabody (L11 expressed from pcDNA3.1-L11 in NSR cells) (antibody, V domains shown, not shown: small tags and cut ends)
VL: B2 VL
B10: K5 intrabody (L5 expressed from pcDNA3.1-L5 in NSR cells) (antibody, V domains shown, not shown: small tags and cut ends)
VL: B1 VL with N28G, T31M, R50N, V51T, T53H, T91H, K93T, F96D, E107K
B11: K9 intrabody (L9 expressed from pcDNA3.1-L9 in NSR cells) (antibody, V domains shown, not shown: small tags and cut ends)
VL: B1 VL with N28A, T31N, N34G, R50K, V51A, T53Y, T91M, K93S, F96N, E107K

T2 sequence (P51813 417-675): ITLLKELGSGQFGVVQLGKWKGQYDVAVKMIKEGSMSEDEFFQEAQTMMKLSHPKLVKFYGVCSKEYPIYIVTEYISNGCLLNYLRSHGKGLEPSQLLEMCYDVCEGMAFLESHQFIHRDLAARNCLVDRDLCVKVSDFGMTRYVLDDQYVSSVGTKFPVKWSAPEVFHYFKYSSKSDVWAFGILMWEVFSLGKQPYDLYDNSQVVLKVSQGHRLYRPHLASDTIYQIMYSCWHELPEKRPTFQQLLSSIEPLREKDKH

The target of the first assay is T1, endogenous Etk of NSR cells (mouse, UniProt P97504 1-651).
T1 sequence (looked up): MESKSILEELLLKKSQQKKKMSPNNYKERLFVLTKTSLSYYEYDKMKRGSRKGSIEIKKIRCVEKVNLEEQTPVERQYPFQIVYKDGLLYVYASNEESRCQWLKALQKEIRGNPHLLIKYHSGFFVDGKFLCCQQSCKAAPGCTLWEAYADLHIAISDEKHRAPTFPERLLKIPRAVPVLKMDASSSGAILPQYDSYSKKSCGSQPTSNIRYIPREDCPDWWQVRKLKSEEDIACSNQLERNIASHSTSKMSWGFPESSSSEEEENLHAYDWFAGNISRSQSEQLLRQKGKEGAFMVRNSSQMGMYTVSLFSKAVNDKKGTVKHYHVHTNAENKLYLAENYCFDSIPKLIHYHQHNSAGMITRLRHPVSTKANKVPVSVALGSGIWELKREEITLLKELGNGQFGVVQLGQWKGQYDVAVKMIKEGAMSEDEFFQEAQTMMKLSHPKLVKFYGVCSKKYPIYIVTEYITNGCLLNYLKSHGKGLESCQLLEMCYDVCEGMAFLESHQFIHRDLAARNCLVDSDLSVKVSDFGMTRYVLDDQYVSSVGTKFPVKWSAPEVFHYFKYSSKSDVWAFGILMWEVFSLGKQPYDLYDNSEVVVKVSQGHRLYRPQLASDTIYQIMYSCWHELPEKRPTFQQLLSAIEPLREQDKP
Briefly: co-immunoprecipitation from NSR cell lysate (protein L or anti-Etk), western blot. The protocol: Western immunoblotting and immunoprecipitation. Cells from a 150 mm dish were harvested in 1 ml lysis buffer containing 25 mM Tris-HCl pH 7.4, 2 mM sodium orthovanadate, 0.5 mM EDTA, 10 mM NaF, 10 mM sodium pyrophosphate, 25 mM NaCl and 1% Tx-100 supplemented with 1:1000 dilution of protease inhibitor cocktail. Cells were frozen and thawed twice, centrifuged and supernatant was collected. Samples of 50 μg protein extract were resolved by SDS-PAGE under reducing conditions, and transferred onto nitrocellulose membrane for western immunoblotting with the indicated antibodies. For immunoprecipitation, 0.5 mg of protein extracts were incubated with either protein L beads or anti-Etk antibodies coupled to protein A bead overnight at 4° C. The immunocomplex was washed 4 times with PBST and twice with 50 mM Hepes, pH 7.5, electrophored on an SDS-polyacrylamide gel under reducing conditions, and transferred onto nitrocellulose membrane for western immunoblotting with the indicated antibodies. In addition, the immunocomplex was also used as the source for enzyme (Etk kinase) in the in vitro kinase activity and autophosphorylation assays described below.
This was further confirmed when the cell lysate was immunoprecipitated with an anti-Etk antibody followed by blotting with an anti-c-Myc antibodies (FIG. 3C).
For orientation: Immunoblotting shows a protein as a band on a membrane.
On to B1, for which the binding result is “no binding”.

The next assay addresses T2, GST-Etk kinase domain (human, UniProt P51813 417-675).
T2 construct: Soluble fusion protein expressed in SF21 cells by baculovirus, purified on glutathione beads; also called recombinant Etk; not shown: Glutathione-S-transferase (GST) fusion partner of the pBac vector (Pharmingen)
Briefly: ELISA, purified domain antibody on immobilised GST-Etk, anti-Myc-HRP detection. The protocol: Quantitative Etk binding assay. Various concentrations of purified domain antibodies were added into a Maxi-sorp 96 well microtiter plate coated with 100 μl/well of 1 μg/ml GST-Etk and incubated for 1 h at RT. The plate was washed 3 times with PBST and then incubated with 100 μl/well of anti-Myc-HRP conjugate (1:5000 dilution) for 1 h at RT. The plate was washed 5 times, TMB peroxidase substrate was added and the absorbance at 450 nm was measured.
The antibody concentration required for 50% of maximum binding to Etk was 5 nM and 8 nM for L9 and L11, respectively, and approximately 20 nM for L5, L7, L12 and L15. […] Consistent with the binding data, all 6 domain antibodies blocked Etk enzymatic activity dose-dependently, as indicated by the reduction in the ability of recombinant Etk to phosphorylate the substrate, polyEY, in the presence of the domain antibodies (FIG. 2C).
Background: In an ELISA, binding on a coated surface is turned into a signal by an enzyme label.
Molecule B2 had an EC50 of 8 nM.
The molecule B3 yielded an EC50 of around 20 nM.
On the same count and under the same terms, to B4 belongs around 20 nM.
For the molecule B5, the concentration for a half-maximal effect (EC50) was around 20 nM.
In turn, B6 registered a concentration for a half-maximal effect (EC50) of 5 nM.
On the same count and under the same terms, next, B7: around 20 nM.

The target of another assay is T1, endogenous Etk of NSR cells. Briefly: cell-based or functional assay.
As for B8, the “in vitro autophosphorylation of immunoprecipitated Etk, percent of the wild-type enzyme (from NSR cells) activity retained” value is around 37% and the “in vitro kinase assay of Etk/intrabody immunocomplexes on polyEY, percent of activity of Etk derived from NSR cells” value was around 25%.
In the case of B9, the “in vitro autophosphorylation of immunoprecipitated Etk, percent of the wild-type enzyme (from NSR cells) activity retained” value was around 30% and the “in vitro kinase assay of Etk/intrabody immunocomplexes on polyEY, percent of activity of Etk derived from NSR cells” value was around 25%.
With B10, the “in vitro autophosphorylation of immunoprecipitated Etk, percent of the wild-type enzyme (from NSR cells) activity retained” value was around 49% and the “in vitro kinase assay of Etk/intrabody immunocomplexes on polyEY, percent of activity of Etk derived from NSR cells” value was around 25%.
For the molecule B11, the “in vitro autophosphorylation of immunoprecipitated Etk, percent of the wild-type enzyme (from NSR cells) activity retained” value is around 38% and the “in vitro kinase assay of Etk/intrabody immunocomplexes on polyEY, percent of activity of Etk derived from NSR cells” value is around 25%.

The next assay deals with T2, GST-Etk kinase domain. Briefly: cell-based or functional assay.
B2: the “domain antibody concentration required to achieve 50% inhibition of Etk kinase activity (polyEY substrate, ELISA-based in vitro kinase assay)” value is around 40 nM.
In the case of B3, the “domain antibody concentration required to achieve 50% inhibition of Etk kinase activity (polyEY substrate, ELISA-based in vitro kinase assay)” value was around 20 nM.
As to B4, the “domain antibody concentration required to achieve 50% inhibition of Etk kinase activity (polyEY substrate, ELISA-based in vitro kinase assay)” value was around 20 nM.
Consider B5, for which the “domain antibody concentration required to achieve 50% inhibition of Etk kinase activity (polyEY substrate, ELISA-based in vitro kinase assay)” value was around 20 nM.
On to B6, for which the “domain antibody concentration required to achieve 50% inhibition of Etk kinase activity (polyEY substrate, ELISA-based in vitro kinase assay)” value was around 20 nM.
